In paper PMC3351461:

Tests used:
[1] = biological target: Wnt3a (human (endogenous in H322 and H460)) (UniProt P56704)
[2] = biological target: Wnt3a (human (endogenous in H322 and H460)) (UniProt P56704); remark: listed apart in the source

Chain of UniProt P56704 (P56704 19-352): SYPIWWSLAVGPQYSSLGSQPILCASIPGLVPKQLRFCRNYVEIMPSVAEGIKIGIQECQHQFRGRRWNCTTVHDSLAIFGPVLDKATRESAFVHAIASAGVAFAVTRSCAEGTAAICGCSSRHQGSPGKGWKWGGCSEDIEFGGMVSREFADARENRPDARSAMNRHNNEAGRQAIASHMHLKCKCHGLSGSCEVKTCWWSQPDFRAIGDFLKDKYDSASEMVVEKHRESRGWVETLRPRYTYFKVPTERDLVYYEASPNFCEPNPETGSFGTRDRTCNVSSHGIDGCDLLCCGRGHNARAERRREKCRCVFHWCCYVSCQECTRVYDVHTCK

For “soluble LRP6 receptor (sLRP6E1E2) (domain or fragment)”, the nuclear beta-catenin (immunofluorescence, quantified) in H322 cells with Wnt3a, decrease in dE1-k35/sLRP6E1E2-transduced cells compared with dE1-k35/LacZ [1] was 98.1%, the TOPflash luciferase activity in H322 cells with recombinant Wnt3a (100 ng/ml), lower in dE1-k35/sLRP6E1E2-transduced than in dE1-k35/LacZ-transduced cells [2] was 52% and the TOPflash luciferase activity in H322 cells without added Wnt3a, reduction by dE1-k35/sLRP6E1E2 compared with dE1-k35/LacZ [2] was 12%. It also gave a TOPflash luciferase activity in H460 cells with recombinant Wnt3a (100 ng/ml), lower in dE1-k35/sLRP6E1E2-transduced than in dE1-k35/LacZ-transduced cells [2] of 48% and a TOPflash luciferase activity in H460 cells without added Wnt3a, reduction by dE1-k35/sLRP6E1E2 compared with dE1-k35/LacZ [2] of 48%.
